# Experimental data: publication PMC3614988
# Key:
# [1] = target: Rai14 (retinoic acid induced protein 14) (rat (endogenous in testis)) (UniProt Q5U312); test: co-IP; testis lysates (800 µg protein) of rats 48 hr after a single dose of adjudin (50 mg/kg b.w., by gavage); anti-Rai14 IgG as precipitating antibody, blot with anti-actin antibody; compared with 0 hr
# [2] = target: Rai14 (retinoic acid induced protein 14) (rat (endogenous in testis)) (UniProt Q5U312); test: co-IP; testis lysates (800 µg protein) of rats 12 hr after a single dose of adjudin (50 mg/kg b.w., by gavage); anti-Rai14 IgG as precipitating antibody, blot with anti-actin antibody; compared with 0 hr
# UniProt Q5U312, sequence (Q5U312 whole entry): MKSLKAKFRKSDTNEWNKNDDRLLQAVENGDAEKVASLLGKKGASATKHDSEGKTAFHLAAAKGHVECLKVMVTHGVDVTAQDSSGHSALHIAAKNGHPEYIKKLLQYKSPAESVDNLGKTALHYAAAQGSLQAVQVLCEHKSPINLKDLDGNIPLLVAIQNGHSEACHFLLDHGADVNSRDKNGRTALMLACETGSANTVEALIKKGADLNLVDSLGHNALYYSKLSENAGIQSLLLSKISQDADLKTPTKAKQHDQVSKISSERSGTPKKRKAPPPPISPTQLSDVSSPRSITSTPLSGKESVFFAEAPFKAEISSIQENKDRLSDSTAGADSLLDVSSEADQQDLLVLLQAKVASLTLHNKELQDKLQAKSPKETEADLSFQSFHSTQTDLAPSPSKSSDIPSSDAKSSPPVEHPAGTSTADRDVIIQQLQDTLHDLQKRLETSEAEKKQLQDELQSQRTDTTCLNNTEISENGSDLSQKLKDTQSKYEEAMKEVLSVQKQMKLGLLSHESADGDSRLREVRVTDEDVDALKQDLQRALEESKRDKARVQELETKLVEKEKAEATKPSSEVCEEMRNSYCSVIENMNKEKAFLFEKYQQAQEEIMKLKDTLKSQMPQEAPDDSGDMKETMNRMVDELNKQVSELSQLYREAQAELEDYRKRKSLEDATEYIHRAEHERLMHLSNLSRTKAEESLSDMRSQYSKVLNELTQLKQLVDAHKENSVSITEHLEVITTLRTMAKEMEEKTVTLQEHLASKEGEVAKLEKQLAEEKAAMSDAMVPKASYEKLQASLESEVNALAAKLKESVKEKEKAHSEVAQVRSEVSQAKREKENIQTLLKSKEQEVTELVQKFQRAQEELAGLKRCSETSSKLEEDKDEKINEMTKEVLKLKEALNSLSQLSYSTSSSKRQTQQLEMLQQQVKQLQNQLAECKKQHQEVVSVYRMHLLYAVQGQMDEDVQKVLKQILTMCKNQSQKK
substance,measurement,setting,value
actin (from UniProt P60711 1-375) (natural protein),percent loss of the Rai14-actin co-IP against 0 hr,[1],90%
same,percent reduction of the Rai14-actin co-IP against 0 hr,[2],35%
